In patent publication US20240002497A1 (Merck Sharp & Dohme, published 2024):

What was measured:
rhNav1.7α + β1-β2-β3 [1] = biological target: T1, rhNav1.7α + β1-β2-β3 (rhesus monkey); test: binding FACS, CHO FlpIn
T1 construct: also called rhNav1.7-beta1-beta2-beta3; rhNav1.7-β1-β2-β3
Experimental: (§1) Binding of the ISVDs to cell-expressed Nav1.7α was detected via murine anti-Flag (Sigma, catalog #F1804). Briefly, cells were resuspended in FACS buffer (PBS, 10% FBS, NaN₃) and transferred to a 96-well V-bottom plate at 1×10^5 cells/well. Purified FLAG3-tagged ISVD was diluted in FACS buffer and added to the cells for 30 minutes at 4° C. […] Prior to the read-out, the samples were resuspended in 1 μg/mL propidium iodide (Sigma, catalog #P4170) to exclude dead cells. Between each step, the cells were centrifuged for 5 minutes at 200 grams and washed with 100 μL/well FACS buffer.

huNav1.7α + β1-β2-β3 [2] = biological target: T2, huNav1.7α + β1-β2-β3 (human, UniProt Q15858 1-1988; A5A6L6 19-218; O60939 30-215; Q2KI11 23-215); test: binding FACS, CHO FlpIn
T2 construct: also called huNav1.7-beta1-beta2-beta3; huNav1.7-β1-β2-β3
Experimental: as §1

huNav1.7α + β1-β2-β3 [3] = biological target: T3, huNav1.7α + β1-β2-β3 (human, UniProt Q15858 1-1988; A5A6L6 19-218; O60939 30-215; Q2KI11 23-215); test: binding FACS, CHO FlpIn cells
T3 construct: Cell line (CHO FlpIn, HEK FlpIn, transient HEK293T) is named under assay; also called huNav1.7-beta1-beta2-beta3; human Nav1.7α with Navβ1, Navβ2 and Navβ3
Experimental: as §1

rhNav1.7α + β1-β2-β3 [4] = biological target: T4, rhNav1.7α + β1-β2-β3 (rhesus monkey); test: binding FACS, CHO FlpIn cells
T4 construct: also called rhNav1.7-beta1-beta2-beta3; rhesus Nav1.7α
Experimental: as §1

[5] = biological target: T5, huNav1.7α + β1-β2-β3 (human Nav1.7α co-expressed with human Navβ1, Navβ2 and Navβ3 on cells) (human); test: binding FACS, CHO FlpIn cells
T5 construct: also called huNav1.7-beta1-beta2-beta3; CHO FlpIn huNav1.7α + β1-β2-β3
Experimental: as §1

Binder	Bmax (huNav1.7α + β1-β2-β3 [3])	EC50 (huNav1.7α + β1-β2-β3 [3])	Bmax (rhNav1.7α + β1-β2-β3 [4])	EC50 (rhNav1.7α + β1-β2-β3 [4])	further results
F010302334 (VHH) VHH: EVQLVESGGGVVQPGGSLRLSCAASSRQFIRDVFTGWYRRAPGKQRELVARIYNEGNTQYADSAKGRFTISRDNAKKTVYLQMNSLRPEDTALYYCLFSGTISTGREYRSGDYWGQGTLVTVSS					Bmax (rhNav1.7α + β1-β2-β3 [1]): 70%; EC50 (rhNav1.7α + β1-β2-β3 [1]): 11 nM; Bmax (huNav1.7α + β1-β2-β3 [2]): 100%; EC50 (huNav1.7α + β1-β2-β3 [2]): 4 nM
F010302340 (VHH) VHH: EVQLVESGGGVVQPGGSLRLSCAASHRAFIRDLFTGWYRRAPGKQRELVARIYESGNTNYADSAKGRFTISRDNAKKTVYLQMNSLRPEDTALYYCLFSGTISTGREYRSGDYWGQGTLVTVSS					Bmax (rhNav1.7α + β1-β2-β3 [1]): 96%; EC50 (rhNav1.7α + β1-β2-β3 [1]): 13 nM; Bmax (huNav1.7α + β1-β2-β3 [2]): 100%; EC50 (huNav1.7α + β1-β2-β3 [2]): 4.6 nM
F010302342 (VHH) VHH: EVQLVESGGGVVQPGGSLRLSCAASSRQFIRDVFTGWYRQAPGKQRELVARIYNEGNTQYADSAKGRFTISRDNAKKTVYLQMNSLRPEDTALYYCLFSGTISTGREYRSGDYWGQGTLVTVSS					Bmax (rhNav1.7α + β1-β2-β3 [1]): 61%; EC50 (rhNav1.7α + β1-β2-β3 [1]): 16 nM; Bmax (huNav1.7α + β1-β2-β3 [2]): 100%; EC50 (huNav1.7α + β1-β2-β3 [2]): 4 nM
F010302336 (VHH) VHH: EVQLVESGGGVVQPGGSLRLSCAASHRQFIRDVFTGWYRRAPGKQRELVARIYNEGNTQYADSAKGRFTISRDNAKKTVYLQMNSLRPEDTALYYCLFSGTISTGREYRSGDYWGQGTLVTVSS					Bmax (rhNav1.7α + β1-β2-β3 [1]): 79%; EC50 (rhNav1.7α + β1-β2-β3 [1]): 9.7 nM; Bmax (huNav1.7α + β1-β2-β3 [2]): 100%; EC50 (huNav1.7α + β1-β2-β3 [2]): 3.6 nM
F010302338 (VHH) VHH: EVQLVESGGGVVQPGGSLRLSCAASHRAFIRDVFTGWYRRAPGKQRELVARIYESGNTQYADSAKGRFTISRDNAKKTVYLQMNSLRPEDTALYYCLFSGTISTGREYRSGDYWGQGTLVTVSS					Bmax (rhNav1.7α + β1-β2-β3 [1]): 100%; EC50 (rhNav1.7α + β1-β2-β3 [1]): 7.9 nM; Bmax (huNav1.7α + β1-β2-β3 [2]): 100%; EC50 (huNav1.7α + β1-β2-β3 [2]): 3.4 nM
F010302335 (VHH) VHH: EVQLVESGGGVVQPGGSLRLSCAASSRQFIRDVFTGWYRRAPGKQRELVARIYESGNTQYADSAKGRFTISRDNAKKTVYLQMNSLRPEDTALYYCLFSGTISTGREYRSGDYWGQGTLVTVSS					Bmax (rhNav1.7α + β1-β2-β3 [1]): 84%; EC50 (rhNav1.7α + β1-β2-β3 [1]): 13 nM; Bmax (huNav1.7α + β1-β2-β3 [2]): 100%; EC50 (huNav1.7α + β1-β2-β3 [2]): 4.1 nM
F010302356 (VHH) VHH: EVQLVESGGGVVQPGGSLRLSCAASHRAFIRDLFTGWYRRAPGKQRELVARIYESGNTNYADSVKGRFTISRDNAKKTVYLQMNSLRPEDTALYYCLFSGTISTGREYRSGDYWGQGTLVTVSS	100%	5.3 nM	81%	12 nM	
F010302357 (VHH) VHH: EVQLVESGGGVVQPGGSLRLSCAASSRQFIRDVFTGWYRQAPGKQRELVARIYNEGNTNYADSVKGRFTISRDNAKKTVYLQMNSLRPEDTALYYCLFSGTISTGREYRSGDYWGQGTLVTVSS	100%	5.3 nM			binding result (rhNav1.7α + β1-β2-β3 [4]): no binding
F010302358 (VHH) VHH: EVQLVESGGGVVQPGGSLRLSCAASSRQFIRDVFTGWYRQAPGKQRELVARIYNEGNTQYADSVKGRFTISRDNAKKTVYLQMNSLRPEDTALYYCLFSGTISTGREYRSGDYWGQGTLVTVSS	100%	4.5 nM	37%	37 nM	
F010302355 (VHH) VHH: EVQLVESGGGVVQPGGSLRLSCAASHRAFIRDVFTGWYRRAPGKQRELVARIYEGGNTQYADSVKGRFTISRDNAKKTVYLQMNSLRPEDTALYYCLFSGTISTGREYRSGDYWGQGTLVTVSS	100%	3.5 nM	97%	6.8 nM	
F010302359 (VHH) VHH: EVQLVESGGGVVQPGGSLRLSCAASSRQFIRDVFTGWYRQAPGKQRELVARIYESGNTQYADSVKGRFTISRDNAKKTVYLQMNSLRPEDTALYYCLFSGTISTGREYRSGDYWGQGTLVTVSS	100%	6.4 nM	66%	24 nM	
F010302316 (VHH, also called F0103387G04(L11V, A12V, K33R, R39Q, S50Y, S56D, T60A, G73A, W78V, S79Y, T83R, V89L, N93R, D99R, N100cI)-FLAG3-HIS6) VHH: EVQLVESGGGVVQPGGSLRLSCAASGPVFNINRMAWYRQAPGKQRELVAYVTPTGDISYADSVKGRFTISRDASKRVYLQMNSLRPEDTALYYCRALLQPRSYSITRTYWGQGTLVTVSS					Bmax [5]: 91%; EC50 [5]: 8.2 nM
F010302321 (VHH, also called F0103387G04(L11V, A12V, K33R, R39Q, S50Y, S56D, T60A, G73R, W78V, S79Y, T83R, V89L, N93R, S100R, N100cI)-FLAG3-HIS6) VHH: EVQLVESGGGVVQPGGSLRLSCAASGPVFNINRMAWYRQAPGKQRELVAYVTPTGDISYADSVKGRFTISRDRSKRVYLQMNSLRPEDTALYYCRALLQPDRYSITRTYWGQGTLVTVSS					Bmax [5]: 91%; EC50 [5]: 7.9 nM
F010302318 (VHH, also called F0103387G04(L11V, A12V, K33R, R39Q, S50Y, S56D, T60A, W78V, S79Y, T83R, V89L, N93R, S100R, N100cI)) VHH: EVQLVESGGGVVQPGGSLRLSCAASGPVFNINRMAWYRQAPGKQRELVAYVTPTGDISYADSVKGRFTISRDGSKRVYLQMNSLRPEDTALYYCRALLQPDRYSITRTYWGQGTLVTVSS					Bmax [5]: 89%; EC50 [5]: 11 nM
F010302324 (VHH, also called F0103387G04(L11V, A12V, K33R, R39Q, S50Y, S56D, T60A, G73R, W78V, S79Y, T83R, V89L, N93R, D99R, S100R, N100cI)) VHH: EVQLVESGGGVVQPGGSLRLSCAASGPVFNINRMAWYRQAPGKQRELVAYVTPTGDISYADSVKGRFTISRDRSKRVYLQMNSLRPEDTALYYCRALLQPRRYSITRTYWGQGTLVTVSS					Bmax [5]: 42%; EC50 [5]: 29 nM
F010302319 (VHH, also called F0103387G04(L11V, A12V, K33R, R39Q, S50Y, S56D, T60A, G73A, W78V, S79Y, T83R, V89L, N93R, S100R, N100cI)-FLAG3-HIS6) VHH: EVQLVESGGGVVQPGGSLRLSCAASGPVFNINRMAWYRQAPGKQRELVAYVTPTGDISYADSVKGRFTISRDASKRVYLQMNSLRPEDTALYYCRALLQPDRYSITRTYWGQGTLVTVSS					Bmax [5]: 88%; EC50 [5]: 15 nM

Now from value to binder, other results behind:

Bmax (huNav1.7α + β1-β2-β3 [3])	EC50 (huNav1.7α + β1-β2-β3 [3])	Bmax (rhNav1.7α + β1-β2-β3 [4])	EC50 (rhNav1.7α + β1-β2-β3 [4])	Binder	further results
100%	3.1 nM			F010302365 (VHH) VHH: EVQLVESGGGVVQPGGSLRLSCAASSRAFIRDVFTGWYRRAPGKQRELVARIYNGGNTNYADSAKGRFTISRDNAKKTVYLQMNSLRPEDTALYYCLFSGTISTGREYRSGDYWGQGTLVTVSS	binding result (rhNav1.7α + β1-β2-β3 [4]): no binding
100%	3.5 nM	58%	15 nM	F010302360 (VHH) VHH: EVQLVESGGGVVQPGGSLRLSCAASHRQFIRDVFTGWYRQAPGKQRELVARIYNEGNTQYADSVKGRFTISRDNAKKTVYLQMNSLRPEDTALYYCLFSGTISTGREYRSGDYWGQGTLVTVSS	
100%	3.7 nM			F010302366 (VHH) VHH: EVQLVESGGGVVQPGGSLRLSCAASSRAFIRDVFTGWYRQAPGKQRELVARIYNGGNTNYADSAKGRFTISRDNAKKTVYLQMNSLRPEDTALYYCLFSGTISTGREYRSGDYWGQGTLVTVSS	binding result (rhNav1.7α + β1-β2-β3 [4]): no binding
100%	4.2 nM	96%	9.3 nM	F010302363 (VHH) VHH: EVQLVESGGGVVQPGGSLRLSCAASHRAFIRDVFTGWYRQAPGKQRELVARIYEGGNTQYADSVKGRFTISRDNAKKTVYLQMNSLRPEDTALYYCLFSGTISTGREYRSGDYWGQGTLVTVSS	
100%	5.4 nM	89%	14 nM	F010302362 (VHH) VHH: EVQLVESGGGVVQPGGSLRLSCAASHRAFIRDVFTGWYRQAPGKQRELVARIYESGNTQYADSVKGRFTISRDNAKKTVYLQMNSLRPEDTALYYCLFSGTISTGREYRSGDYWGQGTLVTVSS	
100%	7.2 nM	74%	17 nM	F010302364 (VHH) VHH: EVQLVESGGGVVQPGGSLRLSCAASHRAFIRDLFTGWYRQAPGKQRELVARIYESGNTNYADSVKGRFTISRDNAKKTVYLQMNSLRPEDTALYYCLFSGTISTGREYRSGDYWGQGTLVTVSS	
100%	4.8 nM	92%	11 nM	F010302361 (VHH) VHH: EVQLVESGGGVVQPGGSLRLSCAASHRQFIRDVFTGWYRQAPGKQRELVARIYEGGNTQYADSVKGRFTISRDNAKKTVYLQMNSLRPEDTALYYCLFSGTISTGREYRSGDYWGQGTLVTVSS	
100%	3.9 nM			F010302368 (VHH) VHH: EVQLVESGGGVVQPGGSLRLSCAASSRAFIRDVFTGWYRQAPGKQRELVARIYNGGNTNYADSVKGRFTISRDNAKKTVYLQMNSLRPEDTALYYCLFSGTISTGREYRSGDYWGQGTLVTVSS	binding result (rhNav1.7α + β1-β2-β3 [4]): no binding
